Patent US20070086998A1

Tests used:
[1] = target: HLA-DR on LG-2 cells (human); experiment: cell-based or functional assay
[2] = target: HLA-DR as expressed on the tumor cell line; experiment: cell-based or functional assay

L243 (antibody), sequence (VH): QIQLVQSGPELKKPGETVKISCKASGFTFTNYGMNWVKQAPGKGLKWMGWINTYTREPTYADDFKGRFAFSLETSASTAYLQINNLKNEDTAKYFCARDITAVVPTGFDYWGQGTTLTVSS
L243 (antibody), sequence (VL): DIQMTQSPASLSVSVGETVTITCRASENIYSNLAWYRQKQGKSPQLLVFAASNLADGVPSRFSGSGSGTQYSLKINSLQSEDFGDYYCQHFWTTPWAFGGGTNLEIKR

## L243 (antibody)
[1]
  % Killing by mAb; LG-2 (DR 1,1); 200 nM, 4 h: 79%
[2]
  % Killing by mAb; ARH-77 (DR 12); 200 nM, 4 h: 88%
  % Killing by mAb; BJAB (DR 12,13); 200 nM, 4 h: 53%
  % Killing by mAb; BONNA-12; 200 nM, 4 h: 92%
  % Killing by mAb; DOHH-2 (DR 1,2); 200 nM, 4 h: 29%
  % Killing by mAb; EOL-1; 200 nM, 4 h: 22%
  % Killing by mAb; GRANTA-519 (DR 2,11); 200 nM, 4 h: 83%
  % Killing by mAb; HC-1; 200 nM, 4 h: 88%
  % Killing by mAb; HD-MY-Z; 200 nM, 4 h: 35%
  % Killing by mAb; HDLM-2; 200 nM, 4 h: 77%
  % Killing by mAb; KARPAS-299 (DR 1,2); 200 nM, 4 h: 78%
  % Killing by mAb; KARPAS-422 (DR 2,4); 200 nM, 4 h: 25%
  % Killing by mAb; KM-H2; 200 nM, 4 h: 81%
  % Killing by mAb; L1236; 200 nM, 4 h: 52%
  % Killing by mAb; L-363; 200 nM, 4 h: 6%
  % Killing by mAb; L-428 (DR 12); 200 nM, 4 h: 82%
  % Killing by mAb; LP-1; 200 nM, 4 h: 12%
  % Killing by mAb; MHH-CALL-4 (DR 1,2); 200 nM, 4 h: 35%
  % Killing by mAb; MHH-PREB-1; 200 nM, 4 h: 3%
  % Killing by mAb; MN-60 (DR 10,13); 200 nM, 4 h: 46%
  % Killing by mAb; NALM-1 (DR 1,4); 200 nM, 4 h: 44%
  % Killing by mAb; RAJI (DR 10,17); 200 nM, 4 h: 69%
  % Killing by mAb; RPMI-8226; 200 nM, 4 h: 6%
  % Killing by mAb; SR-786 (DR 1,2); 200 nM, 4 h: 3%
